In one assay the target is dimeric hDII4-hFc (human, UniProt Q9NR61 27-524, biotin in Example 3 (biotin-DII4-hFc), site not stated). Kind of assay: cell-based or functional assay.
The target in assay [1] is hDII4 on cells (DII4 expressing HUVEC; engineered C6 rat glioma cells expressing hDII4) (human, UniProt Q9NR61 27-685). Nature of the assay: cell-based or functional assay.
Sequence of hDII4 on cells (DII4 expressing HUVEC; engineered C6 rat glioma cells expressing hDII4) (Q9NR61 27-685 limits assumed, change not shown): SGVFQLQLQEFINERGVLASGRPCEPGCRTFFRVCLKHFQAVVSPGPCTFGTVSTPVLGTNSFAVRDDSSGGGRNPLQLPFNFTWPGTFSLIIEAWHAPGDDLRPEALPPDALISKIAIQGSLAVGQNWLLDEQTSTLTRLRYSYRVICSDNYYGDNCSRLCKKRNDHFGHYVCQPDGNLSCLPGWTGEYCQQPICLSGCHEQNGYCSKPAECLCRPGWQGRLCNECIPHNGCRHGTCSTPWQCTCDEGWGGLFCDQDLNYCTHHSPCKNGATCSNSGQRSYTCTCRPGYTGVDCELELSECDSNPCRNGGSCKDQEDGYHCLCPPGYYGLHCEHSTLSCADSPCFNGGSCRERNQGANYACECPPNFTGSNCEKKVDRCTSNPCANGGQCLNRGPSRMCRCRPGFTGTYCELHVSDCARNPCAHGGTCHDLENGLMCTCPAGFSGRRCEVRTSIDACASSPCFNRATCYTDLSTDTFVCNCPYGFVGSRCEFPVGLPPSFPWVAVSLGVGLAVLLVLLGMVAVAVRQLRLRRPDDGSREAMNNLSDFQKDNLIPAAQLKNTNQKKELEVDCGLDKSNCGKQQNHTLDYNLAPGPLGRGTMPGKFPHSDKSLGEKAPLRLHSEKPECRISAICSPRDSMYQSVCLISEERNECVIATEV

Sequence of dimeric hDII4-hFc (Q9NR61 27-524 limits assumed): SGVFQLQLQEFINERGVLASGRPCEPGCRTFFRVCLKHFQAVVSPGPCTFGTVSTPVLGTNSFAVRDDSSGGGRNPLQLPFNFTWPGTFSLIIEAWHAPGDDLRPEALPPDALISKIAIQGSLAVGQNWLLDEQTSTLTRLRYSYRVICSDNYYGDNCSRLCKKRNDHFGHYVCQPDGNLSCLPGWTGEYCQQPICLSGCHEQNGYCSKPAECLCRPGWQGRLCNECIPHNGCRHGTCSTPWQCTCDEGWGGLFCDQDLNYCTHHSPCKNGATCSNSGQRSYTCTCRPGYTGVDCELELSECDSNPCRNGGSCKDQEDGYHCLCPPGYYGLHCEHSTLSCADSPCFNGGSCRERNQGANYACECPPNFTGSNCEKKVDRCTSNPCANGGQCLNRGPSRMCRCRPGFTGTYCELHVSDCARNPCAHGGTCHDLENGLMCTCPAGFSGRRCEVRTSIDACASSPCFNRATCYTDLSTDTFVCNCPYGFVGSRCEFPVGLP

B1: 318518-01A10-D8 (antibody, human IgG1)
heavy: not shown
VL: EIVMTQSPATLSLSPGERATLSCRASQSVSSYLAWYQQKPGQAPRLLIYDASNRATGIPARFSGSGSGTDFTLTISSLEPEDFAVYYCQHRSNWPPTFGGGTKVEIK
notes: HCVR 429 with hIgG1 constant region 950; also called REGN281; 318518-1A10-D8
In the case of B1, the “HUVEC proliferation assay IC50” value in the assay with dimeric hDII4-hFc amounted to 96 pM. In addition, in assay [1], the “EphrinB2 Expression IC50” value was 305 pM and the “Hes1 Expression IC50” value came to 329 pM.

For the origin of these results see patent US20080181899A1 (Regeneron, published 2008).
